Test results taken from IntAct's records for PubMed 30679749.

Molecular target: hs12a_human HSPA12A (UniProt O43301)
Sequence of UniProt O43301 (O43301 whole entry): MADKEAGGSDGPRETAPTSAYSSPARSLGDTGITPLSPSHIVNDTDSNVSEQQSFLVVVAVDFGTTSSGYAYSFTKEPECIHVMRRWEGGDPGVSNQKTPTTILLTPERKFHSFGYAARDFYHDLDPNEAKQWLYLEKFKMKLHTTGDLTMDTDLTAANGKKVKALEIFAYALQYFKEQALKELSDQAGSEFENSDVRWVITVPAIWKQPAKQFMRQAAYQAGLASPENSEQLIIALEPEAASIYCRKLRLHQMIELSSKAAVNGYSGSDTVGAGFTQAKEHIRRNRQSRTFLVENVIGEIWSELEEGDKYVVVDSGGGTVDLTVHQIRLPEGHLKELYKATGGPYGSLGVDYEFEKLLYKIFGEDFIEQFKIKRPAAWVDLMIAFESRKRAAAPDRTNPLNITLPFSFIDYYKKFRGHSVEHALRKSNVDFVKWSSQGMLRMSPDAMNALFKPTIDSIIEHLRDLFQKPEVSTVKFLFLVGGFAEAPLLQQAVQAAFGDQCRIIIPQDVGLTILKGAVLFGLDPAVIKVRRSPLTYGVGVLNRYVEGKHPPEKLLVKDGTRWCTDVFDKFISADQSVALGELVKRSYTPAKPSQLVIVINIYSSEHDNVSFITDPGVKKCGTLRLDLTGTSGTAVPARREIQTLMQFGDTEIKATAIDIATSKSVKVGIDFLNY

Substance	effect of a mutation on the interaction
Sortilin-related receptor (Homo sapiens), Q92673 F2205A;S2206A	with no effect
Sortilin-related receptor (Homo sapiens), Q92673 T2203A;G2204A	with no effect
Sortilin-related receptor (Homo sapiens), Q92673 D2190A;D2191A	with no effect
Sortilin-related receptor (Homo sapiens), Q92673 E2194A;D2195A;D2196A;E2197A;D2198A	disrupting interaction strength
Sortilin-related receptor (Homo sapiens), Q92673 V2209A;P2210A	with no effect
Sortilin-related receptor (Homo sapiens), Q92673 D2207A;D2208A	disrupting interaction strength
